# Test results published in article PMC12693566.
# Molecular target: UNC-119 tagged with the C-terminal fragment of Venus (C. elegans) (UniProt Q10658)
# Test: split reporter (BiFC, NanoBiT); BiFC in vivo in transgenic C. elegans (AWC neurons); ODR-3 tagged with VN, partner tagged with VC; read-out is the percentage of animals showing Venus fluorescence
# Chain of UniProt Q10658 (Q10658 whole entry, the tested form may be a part): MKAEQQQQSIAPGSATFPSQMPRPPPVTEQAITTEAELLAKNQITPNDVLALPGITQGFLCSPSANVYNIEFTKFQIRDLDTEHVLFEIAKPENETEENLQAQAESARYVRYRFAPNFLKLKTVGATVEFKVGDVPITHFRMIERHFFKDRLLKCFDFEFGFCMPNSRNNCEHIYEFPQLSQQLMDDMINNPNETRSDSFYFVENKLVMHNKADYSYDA
row,Substance,percent of animals with BiFC
1,ODR-3^A328P tagged with the N-terminal Venus fragment (from UniProt Q18434 1-356) (natural protein),51%
2,ODR-3^WT tagged with the N-terminal Venus fragment (from UniProt Q18434 1-356) (natural protein),81%
